Results taken from US20100098630A1, “Phenazine and Quinoxaline Substituted Amino Acids and Polypeptides” (AMBRX, INC., priority 2006, published 2010).

Target: T1, GH receptor-producing cells (Homo sapiens, UniProt P10912)
T1 sequence (P10912 19-638): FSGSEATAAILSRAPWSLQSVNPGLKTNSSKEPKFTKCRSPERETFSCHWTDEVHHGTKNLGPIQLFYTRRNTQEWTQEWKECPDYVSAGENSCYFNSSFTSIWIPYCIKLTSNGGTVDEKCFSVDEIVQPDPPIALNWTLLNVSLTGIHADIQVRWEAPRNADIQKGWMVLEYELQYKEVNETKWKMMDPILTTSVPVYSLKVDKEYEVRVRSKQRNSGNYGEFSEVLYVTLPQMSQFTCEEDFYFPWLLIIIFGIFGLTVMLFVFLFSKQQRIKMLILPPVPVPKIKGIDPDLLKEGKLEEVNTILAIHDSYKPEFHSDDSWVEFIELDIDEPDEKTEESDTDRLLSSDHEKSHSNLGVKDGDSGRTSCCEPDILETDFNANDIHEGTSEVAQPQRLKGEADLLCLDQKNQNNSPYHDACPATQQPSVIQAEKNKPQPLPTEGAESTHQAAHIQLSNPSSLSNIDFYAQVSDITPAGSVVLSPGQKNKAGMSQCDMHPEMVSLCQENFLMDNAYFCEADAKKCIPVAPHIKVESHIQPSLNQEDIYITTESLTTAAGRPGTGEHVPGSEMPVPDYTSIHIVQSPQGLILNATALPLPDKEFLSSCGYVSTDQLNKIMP
Experiment: Cell binding assays (competition with 125I-GH)
Details: unlabeled competitor, 0° C., 90 minutes
Method: Cells are then resuspended and layered over 200 μl ice cold FCS in a 350 μl plastic centrifuge tube and centrifuged (1000 g; […]). The pellet is collected by cutting off the end of the tube and pellet and supernatant counted separately in a gamma counter (Packard).
Specific binding (cpm) is determined as total binding in the absence of a competitor (mean of duplicates) minus binding (cpm) in the presence of 100-fold excess of unlabeled GH (non-specific binding). The non-specific binding is measured for each of the cell types used.

Q: “GM-CSF: granulocyte-macrophage colony stimulating factor, negative control” was tested. Which “inhibition of 125I-GH binding” value did it give?
A: not
